Measured values taken from patent US10899842 (dated 2021).

Target: human 4-1BB ECD (human, UniProt Q07011)
Sequence (Q07011 24-186): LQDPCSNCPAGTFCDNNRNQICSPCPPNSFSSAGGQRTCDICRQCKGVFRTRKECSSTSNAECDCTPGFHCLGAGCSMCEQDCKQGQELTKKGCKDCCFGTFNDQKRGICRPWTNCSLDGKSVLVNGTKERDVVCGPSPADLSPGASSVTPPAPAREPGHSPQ

Binder | Kd
ZW106 (antibody, V domains shown) VH: QVQLQQPESELVRPGGSVKLSCKASGYTFTSYWMDWVKQRHGQGLEWIGNIYPDSGGTNYAEKFKSKATLTVDTSSSTAYMHLSSLTSEDSAVYYCTREEALGGYYELTYWGQGTLVTVSA VL: DIVLTQSPASLPVSLGQRATISCRASQSVSTSSYSYMHWYQQKPGQPPKLLIKYASNLESGVPARFSGSGSGTDFTLNIHPVEEEDTATYYCQHSWEIPYTFGGGTKLEIE | 1.2 nM
ZW103 (antibody, V domains shown) VH: QVQLQQSGAELVRPGVSVKISCKGSGYTFTDYAMHWVKQSHVKSLEWIGGISTYNGDASYNQKFKGKATMTVDKSSRTAYMELVRLTSEDSAIYYCAPSNYGYAMDYWGQGTSVTVSS VL: not shown | 0.265 nM
ZW104 (antibody, V domains shown) VH: QVQLQQSGAELARPGASVKMSCKASGYIFTTYAMHWVKQRPGQGLEWIGYINPTTVYTIYNQKFKDKATLTADKSSSTAYMQLSSLTSEDSAVYYCARLGGHWYFDVWGAGTTVTVSS VL: not shown | 0.0474 nM
ZW107 (antibody, V domains shown) VH: QVQLQQSGAELVRPGTSVKISCKASGYAFTNYWLGWVKQRPGHGLEWIGDIYPGNGNNYYSEKFKDKATLTADKSSSTVYIRLSSLTSEDSAVYFCARHGSFRSAMDYWGQGTSVTVSS VL: DIQMTQSPASPSASVGETVTITCRASENIYSYLAWYQQKQGKSPQLLVYNAKTLADGVPSRFSGSGSGTQFSLKINSLQPEDFGSYYCQHHYGTPPTFGGGTKLEIK | < 0.001 nM
